In the Immune Epitope Database (IEDB):
pIC50, pKd: −log10 of the molar value.

What was measured:
HLA-C*14:02 = assay: IEDB peptide-MHC binding, purified MHC/direct/fluorescence; filed as Kd, often an IC50 or EC50 that approximates it; ≥ and ≤ were set here for values at or beyond the usual limits of such assays
HLA-C*03:03 = assay: as above; details: source organism: Escherichia coli str. K-12 substr. MG1655
HLA-C*05:01 = assay: as above
HLA-B*39:01 = assay: IEDB peptide-MHC binding, purified MHC/competitive/fluorescence; filed as Kd, often an IC50 or EC50 that approximates it; ≥ and ≤ were set here for values at or beyond the usual limits of such assays; details: source organism: Escherichia coli str. K-12 substr. MG1655
HLA-B*58:01 = assay: as above; details: source organism: Escherichia coli str. K-12 substr. MG1655
HLA-C*15:02 = assay: IEDB peptide-MHC binding, purified MHC/direct/fluorescence; filed as Kd, often an IC50 or EC50 that approximates it; ≥ and ≤ were set here for values at or beyond the usual limits of such assays
HLA-A*26:01 = assay: as above; details: source organism: Mycobacterium tuberculosis
HLA-C*08:02 = assay: as above; details: source organism: Mycobacterium tuberculosis str. Haarlem
HLA-B*83:01 = assay: IEDB peptide-MHC binding, purified MHC/competitive/fluorescence; filed as Kd, often an IC50 or EC50 that approximates it; ≥ and ≤ were set here for values at or beyond the usual limits of such assays
HLA-B*45:06 = assay: as above
HLA-B*15:42 = assay: as above
HLA-A*32:15 = assay: as above
HLA-A*32:07 = assay: as above
HLA-C*04:01 = assay: as above
HLA-A*02:03 = assay: IEDB peptide-MHC binding, purified MHC/direct/fluorescence; filed as Kd, often an IC50 or EC50 that approximates it; ≥ and ≤ were set here for values at or beyond the usual limits of such assays; details: source organism: Mycobacterium tuberculosis str. Haarlem
HLA-A*02:11 = assay: as above; details: source organism: Mycobacterium tuberculosis str. Haarlem
HLA-C*07:02 = assay: as above; details: source organism: Mycobacterium tuberculosis variant bovis BCG str. Pasteur 1173P2
HLA-A*69:01 = assay: as above; details: source organism: Mycobacterium tuberculosis
HLA-C*06:02 = assay: as above; details: source organism: Mycobacterium tuberculosis variant bovis BCG str. Pasteur 1173P2
HLA-A*29:02 = assay: IEDB peptide-MHC binding, purified MHC/competitive/fluorescence; filed as Kd, often an IC50 or EC50 that approximates it; ≥ and ≤ were set here for values at or beyond the usual limits of such assays; details: source organism: Mycosarcoma maydis
HLA-A*01:01 = assay: IEDB peptide-MHC binding, purified MHC/competitive/fluorescence; ≥ and ≤ were set here for values at or beyond the usual limits of such assays
HLA-A*11:01 = assay: as above
HLA-B*15:01 = assay: as above; details: source organism: Vaccinia virus Copenhagen
HLA-A*03:01 = assay: as above; details: source organism: Vaccinia virus Copenhagen
HLA-A*68:01 = assay: IEDB peptide-MHC binding, purified MHC/competitive/radioactivity; filed as Kd, often an IC50 or EC50 that approximates it; ≥ and ≤ were set here for values at or beyond the usual limits of such assays; details: source organism: Vaccinia virus WR
HLA-A*31:01 [1] = assay: as above; details: source organism: Vaccinia virus WR
HLA-A*33:01 = assay: as above; details: source organism: Vaccinia virus WR
HLA-A*24:02 [2] = assay: IEDB peptide-MHC binding, purified MHC/competitive/fluorescence; ≥ and ≤ were set here for values at or beyond the usual limits of such assays; details: source organism: Zaire ebolavirus
HLA-A*02:01 [3] = assay: as above; details: source organism: Zaire ebolavirus
HLA-A*31:01 [4] = assay: IEDB peptide-MHC binding, purified MHC/competitive/fluorescence; filed as Kd, often an IC50 or EC50 that approximates it; ≥ and ≤ were set here for values at or beyond the usual limits of such assays; details: source organism: Shigella flexneri 5 str. 8401
HLA-B*08:01 = assay: as above; details: source organism: Shigella flexneri 5 str. 8401
HLA-A*24:02 [5] = assay: as above; details: source organism: Shigella flexneri 5 str. 8401
HLA-A*02:01 [6] = assay: as above; details: source organism: Shigella flexneri 5 str. 8401
[7] = source organism: Escherichia coli str. K-12 substr. MG1655
[8] = source organism: Mycobacterium tuberculosis str. Haarlem
[9] = source organism: Mycobacterium tuberculosis variant bovis BCG str. Pasteur 1173P2
[10] = source organism: Mycosarcoma maydis
[11] = source organism: Vaccinia virus Copenhagen
[12] = source organism: Zaire ebolavirus
[13] = source organism: Shigella flexneri 5 str. 8401

## AAAVAYPEL
HLA-C*14:02; [7]
  pKd: 5.52
HLA-C*03:03
  pKd: 8.70
HLA-C*05:01; [7]
  pKd: ≤ 4.70
HLA-B*39:01
  pKd: ≤ 4.70
HLA-B*58:01
  pKd: ≤ 4.70

## YTPEQWWPF
HLA-C*15:02; [8]
  pKd: ≤ 4.70
HLA-C*14:02; [8]
  pKd: 6.01
HLA-A*26:01
  pKd: 7.94
HLA-C*08:02
  pKd: ≤ 4.70
HLA-B*83:01; [8]
  pKd: ≤ 5.30
HLA-B*45:06; [8]
  pKd: ≤ 5.30
HLA-B*15:42; [8]
  pKd: ≤ 5.30
HLA-A*32:15; [8]
  pKd: 7.42
HLA-A*32:07; [8]
  pKd: 7.64
HLA-C*04:01; [8]
  pKd: ≤ 5.30

## YMLDMTFPV
HLA-A*02:03
  pKd: ≥ 9.00
HLA-C*15:02; [9]
  pKd: 6.39
HLA-A*02:11
  pKd: ≥ 9.00
HLA-C*07:02
  pKd: 6.19
HLA-C*14:02; [9]
  pKd: 7.12
HLA-A*69:01
  pKd: ≥ 9.00
HLA-C*05:01; [9]
  pKd: 5.46
HLA-C*06:02
  pKd: ≤ 4.70

## IPVHPRHPY
HLA-B*83:01; [10]
  pKd: 6.65
HLA-A*29:02
  pKd: 6.03
HLA-B*45:06; [10]
  pKd: ≤ 5.30
HLA-B*15:42; [10]
  pKd: ≤ 5.30
HLA-A*32:15; [10]
  pKd: 5.84
HLA-A*32:07; [10]
  pKd: 6.41
HLA-C*04:01; [10]
  pKd: ≤ 5.30

## KSNAKCIEY
HLA-A*01:01; [11]
  pIC50: 4.38
HLA-A*11:01; [11]
  pIC50: 4.66
HLA-B*15:01
  pIC50: 4.74
HLA-A*03:01
  pIC50: 4.78
HLA-A*68:01
  pKd: ≤ 4.61
HLA-A*31:01 [1]
  pKd: 6.46
HLA-A*33:01
  pKd: ≤ 4.59

## ITDKIDQII
HLA-A*01:01; [12]
  pIC50: 5.23
HLA-A*24:02 [2]
  pIC50: 5.06
HLA-A*11:01; [12]
  pIC50: 4.41
HLA-A*02:01 [3]
  pIC50: 5.30

## IIMRRFFYF
HLA-B*83:01; [13]
  pKd: ≤ 5.30
HLA-A*31:01 [4]
  pKd: 8.92
HLA-B*08:01
  pKd: 7.65
HLA-A*24:02 [5]
  pKd: ≥ 10.00
HLA-B*45:06; [13]
  pKd: ≤ 5.30
HLA-B*15:42; [13]
  pKd: ≤ 5.30
HLA-A*02:01 [6]
  pKd: 7.48
HLA-A*32:15; [13]
  pKd: 7.17
